Assay results as given in the RNAGym collection of RNA variant scans (doi:10.1073/pnas.2313332121).
This sample holds only a part of the variants without activity.

B1: TPR 5TU (parent)
chain: GGAUCUUCUCGAUCUAACAAAAAAGACAAAUCUGCCACAAAGCUUGAGAGCAUCUUCGGAUGCAGAGGCGGCAGCCUUCGGUGGCGCGAUAGCGCCAACGUUCUCAACUAUGACACGCAAAACGCGUGCUCCGUUGAAUGGAGUUUAUCAUG

Variants of: B1
Experiment: polymerase ribozyme fitness, log enrichment relative to wild type (log ratio); higher = more active; in vitro selection for triplet polymerase activity
How it was run: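 In triplicate, a single round of in vitro selection was run on each mutant library, PCR-built and transcribed, covering one subunit of a heterodimeric triplet polymerase ribozyme. Frozen incubation at −7 °C followed annealing with a biotinylated primer, partner subunit and triplets, and extended constructs were then gel-excised, streptavidin-captured and taken through RT-PCR. Fitness is the logarithm of genotype enrichment over wild-type enrichment, from inverse-variance-weighted replicate averages of Illumina-sequenced inputs and outputs. […] only genotypes with ≥10 input reads and ≥1 read per output were kept.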

| Variant | polymerase ribozyme fitness (log ratio) |
| --- | --- |
| GGAUCUUCUCGAUCUAACAAAAAAGACAAAUCUGCCACAAAGCUUGAGAGCAUCUUCGGAUGCAGAGGCGGCAGCCUUCGGUGUCGCGAUAGCGCCAACGUUCUCAACUAUGACAUGCAAAACGCGUGCUCCGUUGAAUGGAGUUUAUCAUG [G84U C116U] | -2.7 |
| GGAUCUUCUCGAUCUAACAAAAAAGACAAAUCUGCCACAAAGCUUGAGAGCAUCUUCGGAUGCAGAGGCGGCAGCCUUCGGUGUCGCGAUAGCGCCAACGUUCUCAACUAUGACAGGCAAAACGCGUGCUCCGUUGAAUGGAGUUUAUCAUG [G84U C116G] | -1.58 |
| GGAUCUUCUCGAUCUAACAAAAAAGACAAAUCUGCCACAAAGCUUGAGAGCAUCUUCGGAUGCAGAGGCGGCAGCCUUCGGUGACGCGAUAGCGCCAACGUUCUCAACUAUGACACGCAAAACGCGUGCUCCGUUGAAAGGAGUUUAUCAUG [G84A U139A] | -4.11 |
| GGAUCUUCUCGAUCUAACAAAAAAGACAAAUCUGCCACAAAGCUUGAGAGCAUCUUCGGAUGCAGAGGCGGCAGCCUUCGGUGACGCGAUAGCACCAACGUUCUCAACUAUGACACGCAAAACGAGUGCUCCGUUGAAUGGAGUUUAUCAUG [G84A G94A C125A] | -1.7 |
| GGAUCUUCUCGAUCUAACAAAAAAGACAAAUCUGCCACAAAGCUUGAGAGCAUCUUCGGAUGCAGAGGCGGCAGCCUUCGGUGACGCGAUAGCGCCAACGUUCUCAACUAUGACACACAAAACGCGUGAUCCGUUGAAUGGAGUUUAUCAUG [G84A G117A C129A] | -2.45 |
| GGAUCUUCUCGAUCUAACAAAAAAGACAAAUCUGCCACAAAGCUUGAGAGCAUCUUCGGAUGCAGAGGCGGCAGCCUUCGGUGACGCGAUAGCGCCAACGUUCUCAACUAUGACACGCAAAACGCGUGCUCCGUUGAAUGGAGUUUAUCAUA [G84A G152A] | -2.93 |
| GGAUCUUCUCGAUCUAACAAAAAAGACAAAUCUGCCACAAAGCUUGAGAGCAUCUUCGGAUGCAGAGGCGGCAGCCUUCGGUGUCGCGAUGGCGCCAACGUUCUCAACUAUGACACGCAAAACGCGUGCUCCGUUGAAUGGAGUUUAUCAUG [G84U A91G] | -2.81 |
| GGAUCUUCUCGAUCUAACAAAAAAGACAAAUCUGCCACAAAGCUUGAGAGCAUCUUCGGAUGCAGAGGCGGCAGCCUUCGGUGACGCGAUAGCGCCAACGUCCUAAGCUAUGACACGCAAAACGCGUGCUCCGUUGAAUGGAGUUUAUCAUG [G84A U102C C105A A107G] | ≤ -4.2 |
| GGAUCUUCUCGAUCUAACAAAAAAGACAAAUCUGCCACAAAGCUUGAGAGCAUCUUCGGAUGCAGAGGCGGCAGCCUUCGGUGACGCGAUAGCGCCAACGUUCUCAACUAUCACACGCAAAACGCGUGCUCCGUUGAAUGGAGUUUAUCAUG [G84A G112C] | -2.71 |
| GGAUCUUCUCGAUCUAACAAAAAAGACAAAUCUGCCACAAAGCUUGAGAGCAUCUUCGGAUGCAGAGGCGGCAGCCUUCGGUGACGCGAUAGCGCCAACGUUCUCAACUAUGACACGCAAAACGCAUGCUCCGUUGAAUGGAGUUUAUCAUG [G84A G126A] | 0.571 |
| GGAUCUUCUCGAUCUAACAAAAAAGACAAAUCUGCCACAAAGCUUGAGAGCAUCUUCGGAUGCAGAGGCGGCAGCCUUCGGUGACGCGAUAGCGCCAACGUUCUCAACUAUGACACGCAAAACGCUUGCUCCGUUGAAUGGAGUUUAUCAUG [G84A G126U] | -0.0664 |
| GGAUCUUCUCGAUCUAACAAAAAAGACAAAUCUGCCACAAAGCUUGAGAGCAUCUUCGGAUGCAGAGGCGGCAGCCUUCGGUGUCGGGAUAGCGCCAACGUUCUCAACUAUGACACGCAAAACGCGUGCUCCGUUGAAUGGAGUUUAUCAUG [G84U C87G] | -3.88 |
| GGAUCUUCUCGAUCUAACAAAAAAGACAAAUCUGCCACAAAGCUUGAGAGCAUCUUCGGAUGCAGAGGCGGCAGCCUUCGGUGACGCGAUAGCGCCAACGUACUCAACUAUGACACGCAAAACGCGUGCUCUGUUGAAUGGAGUUUAUCAUG [G84A U102A C132U] | -2.3 |
| GGAUCUUCUCGAUCUAACAAAAAAGACAAAUCUGCCACAAAGCUUGAGAGCAUCUUCGGAUGCAGAGGCGGCAGCCUUCGGUGACGCGAUAGCGCCAACGUGCUCAACUAUGACACGCAAAACGGGUGCUCCGUUGAAUGGAGUUUAUCAUG [G84A U102G C125G] | -3.78 |
| GGAUCUUCUCGAUCUAACAAAAAAGACAAAUCUGCCACAAAGCUUGAGAGCAUCUUCGGAUGCAGAGGCGGCAGCCUUCGGUGACGCGAUAGCGCCAACGUUCUCAACAAUGACCCGCAAAAAGCGUGCUCCGUUGAAUGGAGUUUAUCAUG [G84A U109A A115C C123A] | -1.8 |
| GGAUCUUCUCGAUCUAACAAAAAAGACAAAUCUGCCACAAAGCUUGAGAGCAUCUUCGGAUGCAGAGGCGGCAGCCUUCGGUGACGCGAUAGCGCCAACGCUCUCAACUAUGACACGCAAAACGCGUGCUCCGUUGAAUGGAGUUAAUCAUG [G84A U101C U146A] | -0.212 |
| GGAUCUUCUCGAUCUAACAAAAAAGACAAAUCUGCCACAAAGCUUGAGAGCAUCUUCGGAUGCAGAGGCGGCAGCCUUCGGUGUCGCGAUAGCGCCAACGUUCUCAACUAUGACACGCAAACCGCGUGCUCCGUUGAAUGGAGUUUAUCAUG [G84U A122C] | -2.13 |
| GGAUCUUCUCGAUCUAACAAAAAAGACAAAUCUGCCACAAAGCUUGAGAGCAUCUUCGGAUGCAGAGGCGGCAGCCUUCGGUGACGCGAUAGCGCCAACGUUCUCAAUUAUGACACGCAAAACGCGUGCUCCGUUGAAUGGAGUUUAUCAUG [G84A C108U] | -2.74 |
| GGAUCUUCUCGAUCUAACAAAAAAGACAAAUCUGCCACAAAGCUUGAGAGCAUCUUCGGAUGCAGAGGCGGCAGCCUUCGGUGUCGCAAUAGCGCCAACGUUCUCAACUAUGACACGCAAAACGCGUGCUCCGUUGAAUGGAGUUUAUCAUG [G84U G88A] | -4.15 |
